Values of other authors, collected in paper PMC10570509.

Biological target: OSMRβ (Homo sapiens) (UniProt Q99650)
UniProt Q99650, sequence (Q99650 28-740): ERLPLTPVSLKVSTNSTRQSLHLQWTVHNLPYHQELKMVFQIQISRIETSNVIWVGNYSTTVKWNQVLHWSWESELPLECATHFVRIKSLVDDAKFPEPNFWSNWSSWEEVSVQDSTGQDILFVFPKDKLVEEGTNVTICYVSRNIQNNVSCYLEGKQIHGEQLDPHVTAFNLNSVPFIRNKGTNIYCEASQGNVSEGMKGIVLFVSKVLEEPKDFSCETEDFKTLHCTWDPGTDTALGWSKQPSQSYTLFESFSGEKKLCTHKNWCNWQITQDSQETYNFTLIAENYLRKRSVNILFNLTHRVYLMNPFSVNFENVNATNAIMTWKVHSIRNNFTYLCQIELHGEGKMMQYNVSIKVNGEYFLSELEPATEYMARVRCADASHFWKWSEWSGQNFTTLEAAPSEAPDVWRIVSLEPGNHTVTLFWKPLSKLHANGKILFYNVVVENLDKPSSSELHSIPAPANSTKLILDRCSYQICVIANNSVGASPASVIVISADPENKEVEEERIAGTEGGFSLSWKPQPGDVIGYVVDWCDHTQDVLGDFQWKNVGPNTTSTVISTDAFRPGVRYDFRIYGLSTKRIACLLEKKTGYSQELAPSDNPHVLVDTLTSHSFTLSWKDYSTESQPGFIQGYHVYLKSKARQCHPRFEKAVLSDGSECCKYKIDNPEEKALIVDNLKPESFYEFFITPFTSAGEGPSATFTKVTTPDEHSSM

Kd: 0.15 nM
Substance: Oncostatin M (from UniProt P13725)
